These results are taken from paper PMC2275084.

One series concerns the target T1, C598 (Tetrahymena thermophila, UniProt O77448 520-1117).
T1 sequence: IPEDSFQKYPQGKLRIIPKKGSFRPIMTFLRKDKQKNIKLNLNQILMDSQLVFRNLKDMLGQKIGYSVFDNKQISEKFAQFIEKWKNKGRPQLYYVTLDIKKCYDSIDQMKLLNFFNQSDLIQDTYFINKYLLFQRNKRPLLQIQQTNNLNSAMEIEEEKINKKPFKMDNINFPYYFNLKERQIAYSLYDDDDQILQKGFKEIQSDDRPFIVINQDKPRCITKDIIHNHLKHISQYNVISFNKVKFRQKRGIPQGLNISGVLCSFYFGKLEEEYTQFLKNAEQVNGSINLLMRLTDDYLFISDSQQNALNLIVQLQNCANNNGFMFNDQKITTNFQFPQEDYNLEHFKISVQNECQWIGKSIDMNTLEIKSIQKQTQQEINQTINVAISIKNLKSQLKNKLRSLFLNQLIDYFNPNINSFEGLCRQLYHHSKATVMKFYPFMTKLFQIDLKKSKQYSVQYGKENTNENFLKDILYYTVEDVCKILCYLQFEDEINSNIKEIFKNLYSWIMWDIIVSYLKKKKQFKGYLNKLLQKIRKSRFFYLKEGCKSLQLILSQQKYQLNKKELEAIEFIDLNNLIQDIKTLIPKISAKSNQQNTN
The series can be described thus: UV crosslinking.

A further series has as its target T2, TEN domain (E. coli) (Tetrahymena thermophila, UniProt O77448 2-191).
T2 sequence: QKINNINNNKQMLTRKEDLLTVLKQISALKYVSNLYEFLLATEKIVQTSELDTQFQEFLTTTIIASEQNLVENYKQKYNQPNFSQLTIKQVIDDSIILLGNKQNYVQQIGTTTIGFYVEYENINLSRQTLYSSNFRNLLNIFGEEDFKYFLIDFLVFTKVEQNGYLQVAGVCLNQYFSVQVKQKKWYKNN
The series can be described thus: UV crosslinking.

In series [1] the target is T3, N519 (Tetrahymena thermophila, UniProt O77448 1-519).
T3 sequence: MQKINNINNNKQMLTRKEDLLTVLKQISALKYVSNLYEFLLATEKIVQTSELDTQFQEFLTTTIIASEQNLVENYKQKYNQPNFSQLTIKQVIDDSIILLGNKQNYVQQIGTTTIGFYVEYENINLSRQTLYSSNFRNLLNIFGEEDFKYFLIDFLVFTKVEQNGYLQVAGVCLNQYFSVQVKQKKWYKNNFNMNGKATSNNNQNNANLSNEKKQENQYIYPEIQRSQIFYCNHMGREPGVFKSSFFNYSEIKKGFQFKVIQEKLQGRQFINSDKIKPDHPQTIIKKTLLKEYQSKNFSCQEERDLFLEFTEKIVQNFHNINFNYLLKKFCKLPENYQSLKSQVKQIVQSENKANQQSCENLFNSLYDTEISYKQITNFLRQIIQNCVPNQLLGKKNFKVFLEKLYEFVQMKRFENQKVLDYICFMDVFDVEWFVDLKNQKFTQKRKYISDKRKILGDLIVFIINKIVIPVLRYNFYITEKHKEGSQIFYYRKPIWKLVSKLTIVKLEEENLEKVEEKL
Kind of series: UV crosslinking.

For series [2], the target named is T3, N519. The series can be described thus: NeutrAvidin pull-down.
The next series deals with T4, TERT deltaC233 (Tetrahymena thermophila, UniProt O77448 1-884).
T4 sequence: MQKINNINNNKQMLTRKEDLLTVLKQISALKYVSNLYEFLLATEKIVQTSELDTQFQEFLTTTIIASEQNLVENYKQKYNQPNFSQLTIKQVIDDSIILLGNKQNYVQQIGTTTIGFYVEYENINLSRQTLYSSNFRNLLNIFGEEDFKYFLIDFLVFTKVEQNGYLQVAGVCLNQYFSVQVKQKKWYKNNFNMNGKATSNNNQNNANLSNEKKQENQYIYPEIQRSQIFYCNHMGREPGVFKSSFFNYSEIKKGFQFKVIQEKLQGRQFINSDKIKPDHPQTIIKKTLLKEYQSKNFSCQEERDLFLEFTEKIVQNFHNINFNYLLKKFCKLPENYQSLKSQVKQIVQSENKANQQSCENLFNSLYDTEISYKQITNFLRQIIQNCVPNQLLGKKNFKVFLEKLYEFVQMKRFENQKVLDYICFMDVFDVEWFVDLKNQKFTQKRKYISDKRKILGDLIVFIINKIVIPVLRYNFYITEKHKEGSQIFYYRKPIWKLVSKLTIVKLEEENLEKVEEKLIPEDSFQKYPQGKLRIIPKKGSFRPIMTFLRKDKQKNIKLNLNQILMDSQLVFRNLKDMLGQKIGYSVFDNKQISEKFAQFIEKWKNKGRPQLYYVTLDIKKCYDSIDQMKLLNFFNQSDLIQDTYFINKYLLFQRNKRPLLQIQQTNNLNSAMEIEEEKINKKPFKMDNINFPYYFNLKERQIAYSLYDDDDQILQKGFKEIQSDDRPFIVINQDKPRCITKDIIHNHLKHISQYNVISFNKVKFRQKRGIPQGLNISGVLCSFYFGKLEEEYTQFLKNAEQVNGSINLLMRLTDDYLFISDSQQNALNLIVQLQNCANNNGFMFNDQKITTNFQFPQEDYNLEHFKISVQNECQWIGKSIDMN
The series can be described thus: NeutrAvidin pull-down.

The target of a further series is T5, TERT deltaTEN (Tetrahymena thermophila, UniProt O77448 192-1117).
T5 sequence: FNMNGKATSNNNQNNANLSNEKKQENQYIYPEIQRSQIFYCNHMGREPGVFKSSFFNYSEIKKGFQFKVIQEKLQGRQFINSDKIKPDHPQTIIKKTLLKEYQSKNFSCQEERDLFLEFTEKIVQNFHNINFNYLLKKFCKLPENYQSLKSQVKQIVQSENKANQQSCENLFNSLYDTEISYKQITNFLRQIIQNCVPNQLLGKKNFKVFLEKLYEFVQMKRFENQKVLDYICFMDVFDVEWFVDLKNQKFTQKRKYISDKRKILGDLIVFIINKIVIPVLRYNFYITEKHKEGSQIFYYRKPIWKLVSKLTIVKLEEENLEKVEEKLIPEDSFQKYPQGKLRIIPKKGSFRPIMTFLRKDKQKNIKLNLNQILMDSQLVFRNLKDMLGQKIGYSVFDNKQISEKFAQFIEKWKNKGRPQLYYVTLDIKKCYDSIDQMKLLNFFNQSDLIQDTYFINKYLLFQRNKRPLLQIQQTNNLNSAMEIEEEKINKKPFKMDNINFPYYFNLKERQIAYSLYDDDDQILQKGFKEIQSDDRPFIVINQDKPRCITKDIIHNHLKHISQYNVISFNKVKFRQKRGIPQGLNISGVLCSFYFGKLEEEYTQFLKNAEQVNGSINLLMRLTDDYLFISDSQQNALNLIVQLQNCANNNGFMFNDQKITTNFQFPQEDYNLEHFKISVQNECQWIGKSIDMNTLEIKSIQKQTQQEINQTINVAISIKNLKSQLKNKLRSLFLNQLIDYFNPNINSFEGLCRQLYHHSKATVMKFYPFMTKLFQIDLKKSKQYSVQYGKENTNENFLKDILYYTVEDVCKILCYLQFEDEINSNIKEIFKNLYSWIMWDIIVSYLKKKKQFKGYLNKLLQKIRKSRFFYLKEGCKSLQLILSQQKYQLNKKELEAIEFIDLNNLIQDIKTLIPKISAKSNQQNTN
The series can be described thus: NeutrAvidin pull-down.

In series [3] the target is T6, TEN domain (in vitro translated) (Tetrahymena thermophila, UniProt O77448 2-191).
T6 sequence: T2 sequence
Kind of series: NeutrAvidin pull-down.

As for TTGGGGTTGGGGTTGGGGUT (ssDNA, 5-iodo-dU at position 19) [I(19)20GTT], the binding result with C598, with TEN domain (E. coli) and in the series with N519 [1] was “binds” each time.

Turning to UTGGGGTTGGGGTTGGGGTT (ssDNA, 5-iodo-dU at position 1) [I(1)20GTT], the binding result in the series with C598 and in the series with N519 [1] was “binds” each time.

As to GGGGTTGGGGTTGGGGTT (ssDNA, 5' biotin) [Bio-18GTT], the values for the binding signal with N519 [2], with TERT deltaC233 and in the series with TERT deltaTEN were ~6 fold lower affinity than full-length TERT, ~4 fold higher Kd than full-length TERT and ~4 fold higher Kd than full-length TERT, respectively. Moreover, the binding result in series [3] was “no binding”.

In the case of TTGGGGUTGGGGTTGGGGTT (ssDNA, 5-iodo-dU at position 7) [I(7)20GTT], the binding result with C598, with TEN domain (E. coli) and with N519 [1] was “binds” in each case.

Turning to TTGGGGTTGGGGUTGGGGTT (ssDNA, 5-iodo-dU at position 13) [I(13)20GTT], the binding result with C598, with TEN domain (E. coli) and with N519 [1] was “binds” throughout.
